For the experiment, the target named is recombinant TGFβ1 (R and D Systems) (UniProt P01137 279-390). In words: method not stated.

Consider one molecule from patent US6342588 (CAMBRIDGE ANTIBODY TECHNOLOGY, dated 2002).

recombinant TGFβ1 (R and D Systems), sequence (P01137 279-390 limits assumed): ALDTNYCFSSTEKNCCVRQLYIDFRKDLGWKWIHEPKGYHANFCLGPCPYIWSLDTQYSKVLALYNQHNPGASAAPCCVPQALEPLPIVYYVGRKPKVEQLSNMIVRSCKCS

B1: 31G9 scFv (scFv)
chain: QVQLVQSGGGVVQPGRSLRLSCAASGFTFSSYGMHWVRQAPGKGLEWVAVISYDGSIKYYADSVKGRFTISRDNSKNTLYLQMNSLRAEDTAVYYCARTGEYSGYDTSGVELWGQGTTVTVSSGGGGSGGGGSGGGGSDIVMTQSPSTLSASVGDRVTITCRASQGISSWLAWYQQKPGRAPKVLIYKASTLESGVPSRFSGSGSGTDFTLTISSLQPEDFATYYCQQSYSTPWTFGQGTKLEIKR
Turning to B1, the Kd was found to be 1.2 nM.
